In patent publication JP2017222678A (dated 2017):

T1: ヒトTFPI (human tissue factor pathway inhibitor; American Diagnostica) (human, UniProt P10646 29-304, limits assumed)
T1 construct: Coated on plates (ELISA) or amine-coupled to a CM5 chip (Biacore); also called h-TFPI; hTFPI
T1 sequence (looked up): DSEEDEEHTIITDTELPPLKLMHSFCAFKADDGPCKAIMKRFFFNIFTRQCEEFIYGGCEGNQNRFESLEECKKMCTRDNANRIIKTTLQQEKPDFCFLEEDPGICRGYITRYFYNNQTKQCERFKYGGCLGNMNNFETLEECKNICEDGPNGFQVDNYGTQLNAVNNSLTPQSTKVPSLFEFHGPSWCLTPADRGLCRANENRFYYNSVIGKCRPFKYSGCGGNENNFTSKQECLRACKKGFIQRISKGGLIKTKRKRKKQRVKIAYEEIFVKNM

T2: マウスTFPI (mouse TFPI; R&D System) (mouse, UniProt O54819 29-289, limits assumed)
T2 construct: also called m-TFPI; mTFPI
T2 sequence (looked up): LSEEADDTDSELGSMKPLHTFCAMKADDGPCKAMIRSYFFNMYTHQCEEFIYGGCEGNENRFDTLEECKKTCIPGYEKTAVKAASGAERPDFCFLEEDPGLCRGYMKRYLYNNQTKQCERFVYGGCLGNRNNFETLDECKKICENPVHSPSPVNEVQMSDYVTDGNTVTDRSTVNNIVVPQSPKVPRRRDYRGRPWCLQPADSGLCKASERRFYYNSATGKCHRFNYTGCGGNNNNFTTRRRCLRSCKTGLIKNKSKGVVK

B1: TP-2G6 (Fab, V domains shown)
VH: QVQLQQSGPGLVKPSQTLSLTCAISGDSVSSSSAAWSWIRQSPGRGLEWLGIIYYRSKWYNDYAVSVKSRITINPDTSKNQFSLQLNSVTPEDTAVYYCARHSMVGFDVWGQGTLVTVSS
VL: DIVLTQSPATLSLSPGERATLSCRASQYVTSSYLAWYQQKPGQAPRLLIYGSSRATGVPARFSGSGSGTDFTLTISSLEPEDFATYYCQQYSSSPITFGQGTKVEIKR
notes: HuCAL Gold human Fab from E. coli TG1; also called 2G6-Fab
B2: 2G6-IgG (antibody, V domains shown)
VH: B1 VH
VL: B1 VL
notes: also called IgG-2G6; TP-2G6 after conversion to IgG
B3: TP-2B3 (Fab, V domains shown)
VH: QVQLQQSGPGLVKPSQTLSLTCAISGDSVSSNSAAWGWIRQSPGRGLEWLGMIYYRSKWYNSYAVSVKSRITINPDTSKNQFSLQLNSVTPEDTAVYYCARTMSKYGGPGMDVWGQGTLVTVSS
VL: DIVLTQSPATLSLSPGERATLSCRASQNIGSNYLAWYQQKPGQAPRLLIYGASTRATGVPARFNGSGSGTDFTLTISSLEPEDFAVYYCQQLNSIPVTFGQGTKVEIKR
notes: HuCAL Gold human Fab from E. coli TG1
B4: TP-2B4 (Fab, V domains shown)
VH: QVQLVESGGGLVQPGGSLRLSCAASGFTFSNYSMTWVRQAPGKGLEWVSGISYNGSNTYYADSVKGRFTISRDNSKNTLYLQMNSLRAEDTAVYYCARIYYMNLLAGWGQGTLVTVSS
VL: DIELTQPPSVSVAPGQTARISCSGDALGTYYAYWYQQKPGQAPVLVIYGDMNRPSGIPERFSGSNSGNTATLTISGTQAEDEADYYCQSYDAGVKPAVFGGGTKLTVLG
notes: as for B3
B5: TP-2B8 (Fab, V domains shown)
VH: QVQLVQSGAEVKKPGASVKVSCKASGYTFTGNSMHWVRQAPGQGLEWMGTIFPYDGTTKYAQKFQGRVTMTRDTSISTAYMELSSLRSEDTAVYYCARGVHSYFDYWGQGTLVTVSS
VL: DIELTQPPSVSVAPGQTARISCSGDNLRGYYASWYQQKPGQAPVLVIYEDNNRPSGIPERFSGSNSGNTATLTISGTQAEDEADYYCQSWDSPYVHVFGGGTKLTVLG
notes: as for B3

How the values were obtained:
[1] = molecular target: T1, ヒトTFPI (human tissue factor pathway …); test: ELISA on coated human TFPI
[2] = molecular target: T2, マウスTFPI (mouse TFPI; R&D System); test: ELISA on coated mouse TFPI
[3] = molecular target: T1, ヒトTFPI (human tissue factor pathway …); test: ELISA, Fab in bacterial lysate on coated human TFPI

Binder	EC50 [1]	EC50 [2]	fold improvement of EC50 against 2G6-Fab [1]	fold improvement of EC50 against 2G6-Fab [2]	binding result [3]
B1	0.48 nM	5.18 nM	–	–	–
B2	0.22 nM	0.51 nM	2 fold	10 fold	–
B3	–	–	–	–	binds
B4	–	–	–	–	binds
B5	–	–	–	–	binds
